Laboratory results published in patent US20240417436A1 (BRIGHT PEAK THERAPEUTICS, published 2024).
Values belong to the binder of their own block, whether it stands above or below them. *1 amine or outer side, *2 acyl side, *3 side chain or, on linkers, in order; H or OH if unused. Bridges are numbered along the chain shown (N, C = ends). Primed or numbered codes have the meaning given here. [ ]: non-standard residue; d: D form. cleavable peptide RGRRVANLVG = CC(C)C[C@H](NC(=O)[C@H](CC(N)=O)NC(=O)[C@H](C)NC(=O)[C@@H](NC(=O)[C@H](CCCNC(=N)N)NC(=O)[C@H](CCCNC(=N)N)NC(=O)CNC(=O)[C@H](CCCNC(=N)N)N[*:1])C(C)C)C(=O)N[C@H](C(=O)NCC(=O)[*:2])C(C)C; Ygp = O-(8x polyethylene glycol-amino)-tyrosine; Yn3 = O-(9x polyethylene glycol-azido)-tyrosine; Ygp(3) = O-(PEG8-amino)-tyrosine; Yn3(3) = O-(PEG9-azido)-tyrosine; hSer = N[C@@H](CCO)C(=O)O; Nle = CCCC[C@H](N)C(=O)O

Tests used:
[1] = target: T1, recombinant human IL-2 receptor beta containing a His-tag and Avi-Tag (R&D Systems #AVI10459) (human, UniProt P14784 27-239); assay: BLI (Octet), receptor on SAX2 sensor, IL-2 as analyte; construct CMP-167, intact (not the MMP2-treated row r22)
T1 construct: bought protein, held on the Octet SAX2 sensor; also called CD122; IL-2Rβ
T1 sequence (looked up): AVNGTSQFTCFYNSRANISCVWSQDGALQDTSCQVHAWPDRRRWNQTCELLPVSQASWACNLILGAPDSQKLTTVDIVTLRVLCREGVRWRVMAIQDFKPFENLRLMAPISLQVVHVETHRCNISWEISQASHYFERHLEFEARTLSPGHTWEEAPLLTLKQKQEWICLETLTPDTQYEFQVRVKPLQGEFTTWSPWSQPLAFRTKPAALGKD
Description: (§1) Bilayer interferometry (BLI) assays were used to measure the binding constants between activatable IL-2 polypeptides (and activated versions thereof) to IL-2 receptor subunits or receptor complexes. BLI assays were conducted on an Octet® R8 instrument. Assay plates were 96 well, polypropylene, F-bottom (chimney well), black microplates (Greiner Bio-one, Cat. No: 655209). The biosensors were Octet® SAX2 (Sartorius, Cat. No: 18-5136). The assay buffer was 1× Kinetic Buffer (Sartorius, Cat. no: 18-5136) or Phosphate Buffered Saline (PBS) that contained 0.02% (v: v) Tween 20 (Polysorbate 20) and 0.1% (w/v) bovine serum albumin (BSA). The sensor was regenerated between measurements in 10 mM glycine pH 2.7 buffer.
(§2) Sensor attached receptors were either recombinant human IL-2 receptor beta containing a His-tag and Avi-Tag™ (R&D Systems™ #AVI10459) or an Avi-Tag™ Fc with human IL-2R beta and IL-2R gamma attached (Acrobiosystems Cat. no: ACRB-ILG-H82F3-25UG). Receptors were reconstituted from lyophilized powder to 500 μg/ml in PBS. Analytes were diluted in Kinetic buffer to 300 nM, then serially diluted to lower concentrations.

[2] = target: T2, Avi-Tag Fc with human IL-2R beta and IL-2R gamma attached (Acrobiosystems ACRB-ILG-H82F3-25UG) (human, UniProt P14784 27-239; P31785 23-262); assay: BLI (Octet), receptor on SAX2 sensor, IL-2 as analyte
T2 construct: bought heterodimer; also called CD122 CD132; CD122/CD132 complex
T2 sequence (looked up) 1: T1 sequence (looked up)
T2 sequence (looked up) 2: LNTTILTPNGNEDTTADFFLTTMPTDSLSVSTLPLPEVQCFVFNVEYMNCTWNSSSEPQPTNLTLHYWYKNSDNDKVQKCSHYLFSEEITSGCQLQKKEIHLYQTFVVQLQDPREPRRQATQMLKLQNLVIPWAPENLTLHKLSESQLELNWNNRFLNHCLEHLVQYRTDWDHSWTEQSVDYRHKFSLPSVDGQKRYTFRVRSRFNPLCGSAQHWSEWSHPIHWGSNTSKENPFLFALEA
Description: as §1, §2

[3] = target: T1, recombinant human IL-2 receptor beta …; assay: BLI (Octet), receptor on SAX2 sensor, IL-2 as analyte; construct CMP-313
Description: as §1, §2

[4] = target: T1, recombinant human IL-2 receptor beta …; assay: BLI (Octet), receptor on SAX2 sensor, IL-2 as analyte
Description: as §1, §2

[5] = target: T1, recombinant human IL-2 receptor beta …; assay: BLI (Octet), receptor on SAX2 sensor, IL-2 as analyte; construct CMP-328
Description: as §1, §2

[6] = target: T1, recombinant human IL-2 receptor beta …; assay: BLI (Octet), receptor on SAX2 sensor, IL-2 as analyte; construct CMP-166, intact (not the MMP2-treated row r19)
Description: as §1, §2

Kd [2]: 24.9 nM | koff [2]: 0.00194 s⁻¹ | kon [2]: 77800 M⁻¹ s⁻¹ | koff [4]: 0.00154 s⁻¹ | kon [4]: 4.52e+07 M⁻¹ s⁻¹ | Kd [5]: 0.034 nM
B3: CMP-328 (ligand)
chain: APTSSSTKKTQLQLEHLLLDLQEILNGINNYKNPKLTR[Nle]L[hSer][Yn3(3)]KF[Ygp(3)][Nle]PKKATELKHLQCLEEELKPLEEVL[hSer]LAQSKNFHLRPRDLISNINVIVLELKGSETTF[hSer]CEYADETATIVEFLNRWITFSQSIISTLT
modifications: disulfide 58-105; linker 9-23 via cleavable peptide RGRRVANLVG; also: macrocycle: cleavable peptide bridging Lys9 and Glu23 side chains (structure drawing only)

Kd [6]: 614 nM
B4: CMP-166 (ligand)
chain: APTSSSTKKTQLQLEHLLLDLQKILNGINNYKNPKLTR[Nle]L[hSer][Yn3]KF[Ygp][Nle]PKKATELKHLQCLEEELKPLEEVL[hSer]LAQSKNFHLRPRDLISNINVIVLELKGSETTF[hSer]CEYADETATIVEFLNRWITFSQSIISTLT
modifications: disulfide 58-105 (inferred); bridge N-23; not fully specified (bridges); also: cleavable peptide (sequence not given here) joined to N-terminus via glutaryl-PEG4 and to Lys23 side chain

Continued, binder first:

B1: CMP-167 (ligand)
chain: APTSSSTKKTQLQLEHLLLDLQKILNGINNYKNPKLTR[Nle]L[hSer][Yn3]KF[Ygp][Nle]PKKATELKHLQCLEEELKPLEEVL[hSer]LAQSKNFHLRPRDLISNINVIVLELKGSETTF[hSer]CEYADETATIVEFLNRWITFSQSIISTLT
modifications: disulfide 58-105 (inferred); bridge N-23; not fully specified (bridges); also: cleavable peptide (sequence not given here) joined to N-terminus via glutaryl-PEG9 and to Lys23 side chain
Kd [1]: 215 nM

B2: CMP-313 (ligand)
chain: APTSSSTKKTQLQLEHLLLDLQK(KKRGRRVANLVG)ILNGINNYKNPKLTR[Nle]L[hSer][Yn3(3)]KF[Ygp(3)][Nle]PKKATELKHLQCLEEELKPLEEVL[hSer]LAQSKNFHLRPRDLISNINVIVLELKGSETTF[hSer]CEYADETATIVEFLNRWITFSQSIISTLT
modifications: disulfide 58-105; also: branched 27x PEG chains on the attached peptide
koff [2]: 0.00148 s⁻¹ | Kd [3]: 163 nM
